Measured values taken from patent publication US20140363428A1.

How the values were obtained:
human IgE (human) [1] = assay: SPR Biacore T200, 37 C; pH 5.8, 3 microM Ca
human IgE (human) [2] = assay: SPR Biacore T200, 37 C; ratio of KD, pH dependency
human IgE (human) [3] = assay: SPR Biacore T200, 37 C; pH 7.4, […] Ca
human IgE (human) [4] = assay: SPR Biacore T200, 37 C; ratio of KD, pH/Ca dependency
human IgE (human) [5] = assay: SPR Biacore T200, 37 C; pH 5.8, […] Ca

human IgE (human), sequence (heavy, as listed by the source, chain 1 of 2, other chains not shown): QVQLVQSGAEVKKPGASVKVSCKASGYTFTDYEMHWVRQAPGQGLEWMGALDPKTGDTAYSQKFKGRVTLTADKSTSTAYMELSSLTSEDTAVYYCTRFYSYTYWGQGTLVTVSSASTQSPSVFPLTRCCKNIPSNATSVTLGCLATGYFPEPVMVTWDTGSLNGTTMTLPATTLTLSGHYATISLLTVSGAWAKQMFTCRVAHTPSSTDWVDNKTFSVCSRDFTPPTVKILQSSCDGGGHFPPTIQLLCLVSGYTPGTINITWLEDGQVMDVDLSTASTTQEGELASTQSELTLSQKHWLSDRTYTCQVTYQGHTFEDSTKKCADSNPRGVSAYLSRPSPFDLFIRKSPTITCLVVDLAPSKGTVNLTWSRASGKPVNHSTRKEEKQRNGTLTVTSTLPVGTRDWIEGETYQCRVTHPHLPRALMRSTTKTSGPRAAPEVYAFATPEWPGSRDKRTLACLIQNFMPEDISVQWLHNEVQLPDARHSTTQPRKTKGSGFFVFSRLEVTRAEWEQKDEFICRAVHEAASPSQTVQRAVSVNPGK

Kd (human IgE (human) [1]): 13 nM
koff (human IgE (human) [1]): 0.017 s⁻¹
kon (human IgE (human) [1]): 1.4e+06 M⁻¹ s⁻¹
KD (pH 5.8, 1.2 mM Ca)/KD (pH 7.4, 1.2 mM Ca) (human IgE (human) [2]): 2.3
Kd (human IgE (human) [3]): 4.4 nM
koff (human IgE (human) [3]): 0.011 s⁻¹
kon (human IgE (human) [3]): 2.5e+06 M⁻¹ s⁻¹
KD (pH 5.8, 3 microM Ca)/KD (pH 7.4, 1.2 mM Ca) (human IgE (human) [4]): 2.9
Kd (human IgE (human) [5]): 9.9 nM
koff (human IgE (human) [5]): 0.024 s⁻¹
kon (human IgE (human) [5]): 2.4e+06 M⁻¹ s⁻¹
Substance: Xolair (omalizumab; Novartis) (antibody)
